Assay: soluble on expression in E. coli; label from the status in PepcDB or PDB records

Sequence | soluble on expression in E. coli
MSLLPSQSPAIFTVSRLNQTVRLLLEHEMGQVWISGEISNFTQPASGHWYFTLKDDTAQVRCAMFRNSSRRVTFRPQHGQQVLVRANITLYEPRGDYQIIVESMQPAGEGLLQQKYEQLKAKLQAEGLFDQQYKKPLPSPAHCVGVITSKTGAALHDILHVLKRRDPSLPVIIYPAAVQGDDAPGQIVRAIELANQRNECDVLIVGRGGGSLEDLWSFNDERVARAIFTSRIPVVSAVGHETDVTIADFVADLRAPTPSAAAEVVSRNQQELLRQVQSTRQRLEMAMDYYLANRTRRFTQIHHRLQQQHPQLRLARQQTMLERLQKRMSFALENQLKRTGQQQQRLTQRLNQQNPQPKIHRAQTRIQQLEYRLAETLRAQLSATRERFGNAVTHLEAVSPLSTLARGYSVTTATDGNVLKKVKQVKAGEMLTTRLEDGWIESEVKNIQPVKKSRKKVHEGHHHHHH | not soluble
MGSDKIHHHHHHMNLEEVLNYRRSVRVFDKTKPLDPEKVKHCLELATLAPNSSNMQLWEFYQVIQPELLAKISKACLDQTATSTASEVVVFVTRQDLYRIRAKFVLDFERGNVRRNSPKERQEKRIKDRELYYGKLMPFLYARFFRILGLLRSVLAKAIGLFRPIVREVSESDMRVVVHKSCALAAQTFMIAMANEGYDTCPLEGFDSKQMKKLLKLPHGAEVNMVIACGIRDGNKGIWGERGRVPFDEVYHRV | not soluble
ASHHLRMHFKTLPAGESLGSLGLWVWGDVDQPSKDWPNGAITMTKAKKDDYGYYLDVPLAAKHRQQVSYLINNKAGENLSKDQHISLLTPKMNEVWIDENYHAHAYRPLKEGYLRINYHNQSGHYDNLAVWTFKDVKTPTTDWPNGLDLSHKGHYGAYVDVPLKEGANEIGFLILDKSKTGDAIKVQPKDYLFKELDNHTQVFVKDTDPKVYNNPYYID | soluble
MNQLQAEINAANAVFPVSDSTKIPKVSQKLFGLLGDGFFPQLHPKGLKIADNIAALFDQYNLKSIALKNFDLNLERKNDIVIQGKVCYSFSIK | not soluble
MADIVVDGIRATYNIRGESAALLCPPHPLMGGSRFDVRLERIAAELTKRNVSVLRFDYQRPFRSGIGEVEDAKKCVAYLKDRHDKIAVIRYSFGSVVASNVAEYCDAAVYISPLPEINSIYFKDAEIPKLFIIATRDQFVSLEESVKLYEQASKPKEVVKVETDHFYFGKFDFIAKITADFIERQSF | soluble
MAMHPRAGQKARQEDLHNIPALVANYYLLQPEAGNTAHKVEFGTSGHRGTADKTTFNEHHILAIAQAVADVRHEHGVTGPIFIGKDTHALSEPAFSSVLEVLIANGIEVIVQENNGYTPTPGISHAILTYNLKHADKADGIVITPSHNPPQDGGIKYNPPHGGPAEGELTQAIEDRANAYISQQLAGVKRMPIALAKQSELLKQVDLVKPYVDDLVNVVDMAAIQKAKLKIGVDPLGGSGIDYWRQIGNAYQLDLTLVSEAIDPSFQFMSLDKDGVIRMDCSSPYAMAGLLALKDEYDLAFGNDPDYDRHGIVTPKGLMNPNHFLAVCIDYLYRHRQGWAGHVAVGKTLVSSAMIDKVVADLGRELCEVPVGFKWFVDGLYSGRFGFGGEESAGASFLRQDGTPWSTDKDGIILCLLAAEITAVTGKNPQQYYDELAAKHGDFYYSRIQAVANGPQKNVLKKLSPEMVSAQTLAGDAITARLTHAPGNGAAIGGLKVTTDYGWFAARPSGTEDIYKIYCESFKGAEHLKQIESEAQQIVNQVFKDAGL | not soluble
MKPLLTAMFGATLATASTLASAEVAVIMNAGASAAPSQAEVANIFLGKDTSLKGLDQKGWNPTKERFYSALTNKNESQLKSYWSGLVFTGKGQPLQSVDDDAAVIAKVGSEANAIGYIDTSAVNDKVKVLFTLP | not soluble
MIMTNINTACVKNNASYQLNNALPNKETISSNFCERLEQWGNKSVNNGEERAIAVERIKEAYNSNMASLDLSYLDLSELPPIPSTVNTLNLENNCLTCLDLADNASLVNINLSVNKINTITFPKEPKLENIYINHNNLESLDLKNQHSLVNLEAQNNSLKKLEHHHHHH | not soluble
MRQWTATHMAKLARKASIAVGKKGTDLPGQIARRVDHNILRKLAKQVDDIVFISGTNGKTTTSNLIGHTLKKNQINIIHNNEGANMAAGITSAFIMQSSKNTNIAIIEIDEGSIPRVLNEVTPSMMVFTNFFRDQMDRFGEIDIMVDNIAKSISNKGIKLLLNADDPFVSRLKIASHSIVYYGMKKFAHDFEQSTMNESKYCPNCGRLLQYDYIHYNQIGHYHCECGFKREEPTYEVSSFDASPFLKMIINQSEFNMKIAGDFNSYNAIAAYTVLRELGLNDDAIRKGFETYTSDNGRMQYFSKNKKEAMINLAKNPAGMNASLSVGEQIDDKKIYVISLNDNAADGRDISWIYDADFEKLATQDIEAIIVSGTRAEELQLRLKLAEVEVPIKVEKDIYKATALTMKYSSFTVAIPNYTSLTPMLEQLNRSFEGGQS | not soluble
VGKLQKREYSHEVNDEDLRKKVHDECYARAYEVATSGTGKHERGEAFEKIVEEFKAQYTEEELAEKAEMIARYYHDVEKEAMRRAILDEGKRLDGRKTTEIRP | not soluble
MALKVIKISRVSPATASVDPLIVPLSFFDLQWLKLNPTEQVFFYKLTESSSSRDVFYSSILPKLERSLSLILTHFRLFTGHLKWDSQDPKPHLVVLSGDTLSLTVAETDADFSRISGRGLRPELELRPLIPELPIYSDSGAVVSLQVTLFPKQGFCIGTTAHHVVLDGKTAEKFNKAWAHTCKHGTIPKILPTVLDRSVVNVPAGLEQKMLELLPYLTEDDKENGRTLKLPPVKEINAKDNVLRITIEISPENIEKLKERAKKESTRAELHLSTFVVTFAHVWTCMVKARSGDPNRPVRFMYAADFRNRLEPPVPVTYFGTCVLAMDFYKYKAKEFMGEDGFVNTVEILSDSVKRLASQGVESTWKVYEEGTKTMKWGTQLLVVNGSNQIGMYETDFGWGRPIHTETMSIYKNDEFSMSKRRDGIGGVEIGISLKKLEMDTFLSLFYKWIGN | soluble
MASMTGGNNMGRGSMGAMDQEIGTVTDTKMDPRDFLQLLKINAEKAEKNLPLDQKRAGMEALCERFPRAEGVELTLTDLGGVPCIRQATDGAGAAHILYFHGGGYISGSPSTHLVLTTQLAKQSSATLWSLDYRLAPENPFPAAVDDCVAAYRALLKTAGSADRIIIAGDSAGGGLTTASMLKAKEDGLPMPAGLVMLSPFVDLTLSRWSNSNLADRDFLAEPDTLGEMSELYVGGEDRKNPLISPVYADLSGLPEMLIHVGSEEALLSDSTTLAERAGAAGVSVELKIWPDMPHVFQMYGKFVNAADISIKEICHWISARISKLAAALEHHHHHH | soluble
MGSDKIHHHHHHMQLKRMGYAQTKIRQGPNHRDGEQVTFLDVKQFFGLGHVRVGSWVSSEESLIAANMVFDALADLALVLGLPPKVMGLRERLNLAFGHGGQQGVMAHYSPSERTLALAKHAGAGAVAHEFWHAFDHHLSDTAMDIGRSQKARFASELWLNDVPLLCHPLNDRLEALFQSVLLSGDGEHPSDYVRRAIQLDKTYGRLYFSHPSELMARAFEAAIESEGDFEQVDTDSGEIHLLPLINPYLVTGTLEDIKTENKGELLPKFGSWGAMPQGAFPTPIHRQAIMKAMAGYFRPLGRALAKTLS | not soluble
MLNKTNTWTPSLFRDYKNAEHDACGIVSVMEKRKIPTKENIDLCIQSLVKMNHRAGFINGEGDGIGIHIDVPKALWNEKLKSSGYNPTIVDHPHFIVGHFFLNKNENIVDLKNHIRTQLNNENFAILFESDNVINSDALGPLGKQEEPLFWQVALIAENEVVNIEQTLFSVTIKIEENEAIHVASLSRDHVVYKVLGAGDTLVAYYNDLQHPLIASTMTLGHNRYSTNTLSNFFRVQPFSILGHNGEINTIAKLRDQAEMIHVPLTAGGSDSQDLNRTLETLLVQYGYSLFEAMDILFPPIINEIKLYETHLQDLYTYIREAWGHFAQGPAGIISRYKDEAVFSVDSLGLRPVWKVEIESSYIFSSEPGVVSPTEYVAEPKPLAPGEKVGLKWNEQDELVLYEHDDYQTQVYNRFKKKVDVTNYHLHLSIPKTKEIPDACDSMQVETKQYVAFGWDREHIQLLEQMATKGVEPIRSLGHDSPLAALDTDRRNIADFIKESVAVVTNPAIDRDREVEHFSTRTILGERPSLLSDAKKPFVVEMLSPIILEGSVAQSIAQELHTITYEQLIELFNTHSSIATISATFSQAETLQCALSRISSEAITAVNDGASLLLIDDADAHLNERLWIDPHLVTAKVHQVLSENKLRRNCSLVIRSGALRSLHDIVTLHGLGADSINPYLLFATVNDGTKTPITNLYNALNKGLEKVISTIGIHELRGYGRLYSSIGLHEEIANILQITNFLGSNDLAFSLESLAEDAQMRADDYNDPKVRIRKSFHIFPRIWKAIGDVAKGNSYDDYRDKLSELEENNPIAIRHLIQTKETKHVIPTEEVSISIQNHDLPFIISSMSFGSQNEIAFRAYAEAADQLNMISLNGEGGEIKDMIGKYPHTRGQQVASGRFGVNAELLNSSNLIEIKIGQGAKPGEGGHLPGSKVTAKIAEARNATIGSDLISPSNNHDIYSIEDLAQMITEIKTANQLAKVAVKVPVVPNIGTIAVGIAKAGADFINISGFDGGTGAARIHALQHVGLPVEIGVKAAHNALLEANMRHNVEIWADGGIRSVNDALKIMLLGANRIGFGTLSMIAIGCTTCRGCHLDTCHVGIATQIESEAQAKEHGLRRFVPRELESAVAGLLHLFTTFGEELKRLTGNLGYTNLQEIVGRSDLLEQVRGKNLLNLCNLLQTIEHPSVIKTEHVLEKQFEPIHSPHSKELVGVGVEQRVMGGLESCYRVRSKLYEDTKLEPLTLKYTNGSIPGNGLGAYNSENLFIHVNGGAQDGIGKTSFGGGIYITKAKGKDGLYYNGSVGKGFGYGAQKGALYVQGNADARAGIRLSGADMIIGGRMTKPLREKEQGNIGAYSNIKGFAFEYMTNGRALVLGDPGPWICAGMTGGVVYLRHDSSLGLTEQALKRRIAKGANVTLQPISKNGVRDVNELLLDYIRVLNEHEQYEEVALLTPLLDDMQQQFFEIIPKKEQADPSISTE | not soluble
MEDQLTIFIISDSLGETAKAIAKACLSQFPGHDDWHFQRFSYINSQERLEQVFEEASQKTVFMMFSLVDVALASYAQKRCESEHYAYVDLLTNVIQGISRISGIDPLGEPGILRRLDNDYFKRVESIEFAVKYDDGRDPRGILQADLVIIGISRTSKTPLSMFLADKNIKVINIPLVPEVPVPKELRMIDSRRIIGLTNSVDHLNQVRKVRLKSLGLSSTANYASLERILEETRYAEEVMKNLGCPIINVSDKAIEETATIILEILKTNGQVAKNLLEHHHHHH | not soluble
MYQYDEYDQALVSERVAQFRDQIARRLDGELSEEEFLPLRLQNGLYLQKHAYMLRVAIPYGTLSAPQLRALAHVARHYDRGYGHFTTRQNIQFNWIELEQVGDILEHLAGAQMHAIQTSGNCVRNITTEAFAGVAADEWTDPRPLAEILRQWSTVNPEFLFLPRKFKIALSSAVEDRAAVQMHDIGLYLYRHPDAGELRLRVLVGGGLGRTPMLGQVIRDDLPWQHLLSYVEAILRVYNRYGRRDNKYKARIKILVKALGIEAFAREVEEEWQHLRDGPAQLTAEECQRVAERFVLPRYLPPADGELAYGSARAADPAFARWASRNVQAHKVPGYASVVLSTKPGASAPPGDVTAEQMERVADWAERYGFGEIRVAHEQNLVLPDVRLENLHALWREACAAGLGTPNQGLLSDIIACPGGDYCALANAKSIPIAQGIQQRFEDLDHLHDIGELSLNISGCMNACGHHHIGNIGILGVDKSGSEWYQVTLGGAQGKDSALGKVIGPSFSAAEVPAVIERIVETFTDLRVGPERFIDTFNRVGLEPFKARVYARMEEPA | not soluble
